The data set concerns the molecule itself. Kind of data set: SEC.

This note sets out measurements from PMC2643122 (Molecular Microbiology, 2008).

B1: recombinant full-length Candida albicans Ssa2 protein (natural protein)
chain: not shown
For the protein B1, the binding result was “binds”.
